Test results reported in paper PMC3937055.

Target: caveolin, endogenous in mouse hippocampal primary neurons (mouse (endogenous in hippocampal primary neurons)) (UniProt P49817)
Experiment: co-IP; competition: synthetic Tat peptides incubated with living hippocampal primary neurons for 45 min before lysis; anti-caveolin immunoprecipitate blotted for mGlu1 receptor, band intensity normalised to control (n=3)

UniProt P49817, sequence (P49817 whole entry): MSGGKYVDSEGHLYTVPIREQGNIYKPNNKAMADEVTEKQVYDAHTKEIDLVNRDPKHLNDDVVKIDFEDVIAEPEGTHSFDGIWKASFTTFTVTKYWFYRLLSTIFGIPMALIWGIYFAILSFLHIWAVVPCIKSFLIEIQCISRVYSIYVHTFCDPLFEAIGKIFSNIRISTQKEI

Substance: Tat-blocking peptide (Tat peptide fused with caveolin binding site of mGlu1α receptor)
- mGlu1α receptor co-precipitated with caveolin in the presence of the peptide, % of control: 73.3 % of control
